This passage reports Kd results from patent publication US20260193335A1 (ZOETIS SERVICES, published 2026).

Positions count from the first letter of the chain named. In names and notes the source's numbering stands.

The target of assay [1] is T1, Feline FcRn (complex of FcRn-α subunit and β-microglobulin, C-terminal His tag) (feline, UniProt A0ABI7ZNY9 23-296; Q5MGS7 21-118).
T1 construct: treated here as one molecule
The assay is described as follows: SPR Biacore, FcRn on sensor, pH 6; pH 6. On the procedure: As discussed in the above Example section, Feline FcRn was isolated, prepared and mutant Fc IgGs were assayed against feline FcRn according to Strietzelg et. al. Standard RACE PCR was used to amplify feline FcRn-α subunit and β-microglobulin. FcRn-α subunit and β-microglobulin were co-transfected into HEK 293 cells and the FcRn complex was purified by IMAC affinity purification via the c-terminal His tag. KD's were measured by Biacore 3000 or Biacore T200 (GE Healthcare, Pittsburgh, PA, USA) using a CM5 sensor chip.
(§1) FcRn was captured on the surface of the sensor using a modified SA capture method. 10 mM MES; 150 mM NaCl; 0.005% Tween20; 0.5 mg/mL BSA; pH6 was used as capture, method running buffer and titrations. 1×HBS-P, 0.5 mg/mL BSA; pH7.4 was also used for method running buffer and titrations. Fc mutant IgGs were flowed over receptor surfaces and affinity was determined using T200 evaluation software or Biacore Insight Evaluation software. Blank runs containing buffer only were subtracted out from all runs. Flow cells were regenerated using 50 mM Tris pH8 or pH9. Runs were performed at 15° C.

In assay [2] the target is Feline FcRn (complex of FcRn-α subunit and β-microglobulin, C-terminal His tag) (feline). The assay is described as follows: SPR Biacore, biotin-FcRn on SA chip, pH 6. In general terms: SPR reads the build-up and loss of mass on a sensor chip optically.
Assay [3] has as its target T1, Feline FcRn (complex of FcRn-α subunit …). The assay is described as follows: SPR Biacore, biotin-FcRn on SA chip, pH 6. The method, then: Feline FcRn was isolated, prepared and mutant Fc IgGs were assayed against feline FcRn according to Strietzel et. al., discussed above. Standard PCR was used to amplify feline FcRn-α subunit and β-microglobulin. FcRn-α subunit and β-microglobulin were co-transfected into HEK 293 cells and the FcRn complex was purified by IMAC affinity purification via the c-terminal His tag. FcRn complex was biotin labeled through BirA enzymatic biotinylatoin reaction. KD's were measured by Biacore T200 (GE Healthcare, Pittsburgh, PA, USA) or Biacore 8K (Cytiva, Marlborough, MA, USA) using a SA sensor chip.
as §1

Feline FcRn (complex of FcRn-α subunit and β-microglobulin, C-terminal His tag) (feline), sequence (chain, as listed by the source, chain 1 of 2): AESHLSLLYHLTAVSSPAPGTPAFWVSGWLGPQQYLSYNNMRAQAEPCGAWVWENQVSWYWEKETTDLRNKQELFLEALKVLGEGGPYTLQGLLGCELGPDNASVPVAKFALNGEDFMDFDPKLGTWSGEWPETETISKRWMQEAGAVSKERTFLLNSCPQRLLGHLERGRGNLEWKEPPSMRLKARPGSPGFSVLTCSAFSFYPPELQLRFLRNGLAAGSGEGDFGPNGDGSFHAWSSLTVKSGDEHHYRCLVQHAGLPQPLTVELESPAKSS
Feline FcRn (complex of FcRn-α subunit and β-microglobulin, C-terminal His tag) (feline), sequence (Q5MGS7 21-118, chain 2 of 2): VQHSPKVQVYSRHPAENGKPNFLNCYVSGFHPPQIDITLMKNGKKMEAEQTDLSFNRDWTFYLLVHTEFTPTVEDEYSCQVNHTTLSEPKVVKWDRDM

B1: mAb6 anti-TGFβ antibody ZTS-120-1, wildtype (antibody)
heavy: QVQLVQSGAEVKKPGSSVKVSCKASGYTFSSNVISWVRQAPGQGLEWMGGVIPIVDIANYAQRFKGRVTITADESTSTTYMELSSLRSEDTAVYYCASTLGLVLDAMDYWGQGTLVTVSSASTTAPSVFPLAPSCGTTSGATVALACLVLGYFPEPVTVSWNSGALTSGVHTFPAVLQASGLYSLSSMVTVPSSRWLSDTFTCNVAHPPSNTKVDKTVRKTDHPPGPKPCDCPKCPPPEMLGGPSIFIFPPKPKDTLSISRTPEVTCLVVDLGPDDSDVQITWFVDNTQVYTAKTSPREEQFNSTYRVVSVLPILHQDWLKGKEFKCKVNSKSLPSPIERTISKAKGQPHEPQVYVLPPAQEELSRNKVSVTCLIKSFHPPDIAVEWEITGQPEPENNYRTTPPQLDSDGTYFVYSKLSVDRSHWQRGNTYTCSVSHEALHSHHTQKSLTQSPGK
light: ETVLTQSPGTLSLSPGERATLSCRASQSLGSSYLAWYQQKPGQAPRLLIYGASSRAPGIPDRFSGSGSGTDFTLTISRLEPEDFAVYYCQQYADSPITFGQGTKLEIK
notes: also called mAb6 ID No. 12
A word on the Kd: it is the concentration at which binding is half-saturated. Low values mean higher affinity, high ones lower affinity. Molecule B1 gave a Kd in assay [1] of 35.2 nM.

B2: mAb4 (felinized anti-IL31 antibody ZTS-5864) S428E, feline IgG1a (antibody, part only; not given: light constant region, not shown: another chain or arm of the molecule)
heavy: DVQLVESGGDLVKPGGSLRLTCVASGFTFSDYAMSWVRQAPGKGLQWVAGIDSVGSGTSYADSVKGRFTISRDNAKNTLYLQMNSLKTEDTATYYCASGFPGSFEHWGQGTLVTVSSASTTAPSVFPLAPSCGTTSGATVALACLVLGYFPEPVTVSWNSGALTSGVHTFPAVLQASGLYSLSSMVTVPSSRWLSDTFTCNVAHPPSNTKVDKTVRKTDHPPGPKPCDCPKCPPPEMLGGPSIFIFPPKPKDTLSISRTPEVTCLVVDLGPDDSDVQITWFVDNTQVYTAKTSPREEQFNSTYRVVSVLPILHQDWLKGKEFKCKVNSKSLPSPIERTISKAKGQPHEPQVYVLPPAQEELSRNKVSVTCLIKSFHPPDIAVEWEITGQPEPENNYRTTPPQLDSDGTYFVYSKLSVDRSHWQRGNTYTCSVEHEALHSHHTQKSLTQSPGK
VL: QSVLTQPSSVSGTLGQRITISCTGSSSNIGSGYVGWYQQVPGMGPKTVIYYNSDRPSGVPDRFSGSKSGSSGTLTITGLQAEDEADYYCSVYDRTFNAVFGGGT
Take B2: in assay [2], the Kd came to 37.9 nM.

B3: mAb4 (felinized anti-IL31 antibody ZTS-5864) S428F, feline IgG1a (antibody, part only; not given: light constant region, not shown: another chain or arm of the molecule)
heavy: B2 heavy with E433F
VL: B2 VL
Consider B3, for which the Kd in assay [2] is 29.7 nM.

B4: mAb4 (felinized anti-IL31 antibody ZTS-5864) S428H, feline IgG1a (antibody, part only; not given: light constant region, not shown: another chain or arm of the molecule)
heavy: B2 heavy with E433H
VL: B2 VL
As to B4, the Kd in assay [2] worked out at 25.5 nM.

B5: mAb4 (felinized anti-IL31 antibody ZTS-5864) S428K, feline IgG1a (antibody, part only; not given: light constant region, not shown: another chain or arm of the molecule)
heavy: B2 heavy with E433K
VL: B2 VL
In turn, B5 gave a Kd in assay [2] of 21.4 nM.

B6: mAb4 (felinized anti-IL31 antibody ZTS-5864) S428M, feline IgG1a (antibody, part only; not given: light constant region, not shown: another chain or arm of the molecule)
heavy: B2 heavy with E433M
VL: B2 VL
The molecule B6 registered a Kd in assay [2] of 18.8 nM.

B7: mAb4 (felinized anti-IL31 antibody ZTS-5864) S428I, feline IgG1a (antibody, part only; not given: light constant region, not shown: another chain or arm of the molecule)
heavy: B2 heavy with E433I
VL: B2 VL
In turn, B7 gave a Kd in assay [2] of 16.7 nM.

B8: mAb4 (felinized anti-IL31 antibody ZTS-5864) S428N, feline IgG1a (antibody, part only; not given: light constant region, not shown: another chain or arm of the molecule)
heavy: B2 heavy with E433N
VL: B2 VL
Consider B8, for which, in assay [2], the Kd was found to be 49 nM.

B9: mAb4 (felinized anti-IL31 antibody ZTS-5864) S428Y and S434P, feline IgG1a (antibody)
heavy: B2 heavy with E433Y, S439P
VL: B2 VL
notes: also called mAb4 ID No. 30
On to B9, for which binding in assay [3] was characterised by a dissociation constant (Kd) of 40.6 nM.

B10: mAb4 (felinized anti-IL31 antibody ZTS-5864) S428V, feline IgG1a (antibody)
heavy: B2 heavy with E433V
VL: B2 VL
notes: also called mAb4 ID No. 18
In assay [3], B10 registered a Kd of 63.9 nM.

B11: mAb4 (felinized anti-IL31 antibody ZTS-5864) S428Y, feline IgG1a (antibody)
heavy: B2 heavy with E433Y
VL: B2 VL
notes: also called mAb4 ID No. 20
Take B11: the Kd in assay [3] was 63.4 nM.

B12: mAb4 (felinized anti-IL31 antibody ZTS-5864) S428Y and S434H, feline IgG1a (antibody)
heavy: B2 heavy with E433Y, S439H
VL: B2 VL
notes: also called mAb4 ID No. 27
Molecule B12 yielded a Kd in assay [3] of 18.8 nM.

B13: mAb4 (felinized anti-IL31 antibody ZTS-5864) S428L and S434W, feline IgG1a (antibody)
heavy: B2 heavy with E433L, S439W
VL: B2 VL
notes: also called mAb4 ID No. 26
The molecule B13 had a Kd in assay [3] of 17.2 nM.

B14: mAb4 (felinized anti-IL31 antibody ZTS-5864) S428M and S434H, feline IgG1a (antibody)
heavy: B2 heavy with E433M, S439H
VL: B2 VL
notes: also called mAb4 ID No. 32
The molecule B14 registered a Kd in assay [3] of 17.2 nM.

B15: mAb4 (felinized anti-IL31 antibody ZTS-5864) S428Y and S434L, feline IgG1a (antibody)
heavy: B2 heavy with E433Y, S439L
VL: B2 VL
notes: also called mAb4 ID No. 29
Take B15: binding in assay [3] was characterised by a dissociation constant (Kd) of 44 nM.

B16: mAb4 (felinized anti-IL31 antibody ZTS-5864) S428L and S434P, feline IgG1a (antibody)
heavy: B2 heavy with E433L, S439P
VL: B2 VL
notes: also called mAb4 ID No. 25
Take B16: the Kd in assay [3] worked out at 2250 nM.

B17: mAb4 (felinized anti-IL31 antibody ZTS-5864) S428Y and S434F, feline IgG1a (antibody)
heavy: B2 heavy with E433Y, S439F
VL: B2 VL
notes: also called mAb4 ID No. 28
In assay [3], B17 had a Kd of 18.9 nM.

B18: mAb4 (felinized anti-IL31 antibody ZTS-5864) S428M and S434P, feline IgG1a, ID No. 35 (antibody)
heavy: B2 heavy with E433M, S439P
VL: B2 VL
notes: Same printed mutations as ID No. 50; also called mAb4 ID No. 35
For the molecule B18, the Kd in assay [3] was determined as 42 nM.

B19: mAb4 (felinized anti-IL31 antibody ZTS-5864) S428M and S434L, feline IgG1a, ID No. 34 (antibody)
heavy: B2 heavy with E433M, S439L
VL: B2 VL
notes: Same printed mutations as ID No. 49; also called mAb4 ID No. 34
As to B19, the Kd in assay [3] worked out at 28.3 nM.

B20: mAb6 anti-TGFβ antibody ZTS-310, wildtype (antibody, IgG1a)
heavy: QVLLVQSGAEVRRPGASVKIFCKASGYSFTSSWMNWLRQAPAQGFEWMGQIYPGDGDTNYNGKFKGRLTLTADTSTDTAYMELSSLRSADTAVYYCARHYDGSTDYWGHGTIVTVSSASTTAPSVFPLAPSCGTTSGATVALACLVLGYFPEPVTVSWNSGALTSGVHTFPAVLQASGLYSLSSMVTVPSSRWLSDTFTCNVAHPPSNTKVDKTVRKTDHPPGPKPCDCPKCPPPEMLGGPSIFIFPPKPKDTLSISRTPEVTCLVVDLGPDDSDVQITWFVDNTQVYTAKTSPREEQFNSTYRVVSVLPILHQDWLKGKEFKCKVNSKSLPSPIERTISKAKGQPHEPQVYVLPPAQEELSRNKVSVTCLIKSFHPPDIAVEWEITGQPEPENNYRTTPPQLDSDGTYFVYSKLSVDRSHWQRGNTYTCSVSHEALHSHHTQKSLTQSPGK
light: AITMTQSPGSLAGSPGQQVTMNCRASENIYSNLAWYQQKPGQHPKLLIYAATNLADGVPDRFSGSGSGTDFTLTISNLQAEDVASYYCQHFWGTPYTFGGGTK
notes: 'Feline IgG1a subclass B was used'; The listing names the entries heavy chain and light chain; also called mAb6 ID No. 1; ZTS-310 WT
Take B20: the Kd in assay [1] came to 147 nM.

B21: mAb5 (felinized anti-IL31 antibody) S428L, feline IgG1a (antibody, part only; not given: variable domains of mAb5, not shown: another chain or arm of the molecule; small tags and cut ends)
constant: ASTTAPSVFPLAPSCGTTSGATVALACLVLGYFPEPVTVSWNSGALTSGVHTFPAVLQASGLYSLSSMVTVPSSRWLSDTFTCNVAHPPSNTKVDKTVRKTDHPPGPKPCDCPKCPPPEMLGGPSIFIFPPKPKDTLSISRTPEVTCLVVDLGPDDSDVQITWFVDNTQVYTAKTSPREEQFNSTYRVVSVLPILHQDWLKGKEFKCKVNSKSLPSPIERTISKAKGQPHEPQVYVLPPAQEELSRNKVSVTCLIKSFHPPDIAVEWEITGQPEPENNYRTTPPQLDSDGTYFVYSKLSVDRSHWQRGNTYTCSVLHEALHSHHTQKSLTQSPGK
In the case of B21, the Kd in assay [2] stood at 8.65 nM.

B22: mAb5 (felinized anti-IL31 antibody) S428M and S434P, feline IgG1a (antibody, part only; not given: variable domains of mAb5, not shown: another chain or arm of the molecule; small tags and cut ends)
constant: B21 constant with L316M, S322P
B22 returned a Kd in assay [2] of 33.2 nM.

B23: mAb5 (felinized anti-IL31 antibody) S428M and S434L, feline IgG1a (antibody, part only; not given: variable domains of mAb5, not shown: another chain or arm of the molecule; small tags and cut ends)
constant: B21 constant with L316M, S322L
Consider B23, for which the Kd in assay [2] was 18.6 nM.
